Data as given in US20150344570A1 (published 2015).
Where a chain is given by its changes, count along the chain named. Numbers in names are those of the source.

B1: H240-Kn138/H240-Hl147/L73-k0 (antibody, human IgG1, kappa)
heavy 1: QDQLVQSGAEVKKPGASVKVSCKASGFNIKDTYIQWVRQAPGQGLEWMGRIDPLRKQTKYREKFEGRVTITADTSTNTAYMELSSLRSEDTAVYYCVRSGREFDYWGQGTLVTVSSASTKGPSVFPLAPSSKSTSGGTAALGCLVKDYFPEPVTVSWNSGALTSGVHTFPAVLQSSGLYSLSSVVTVPSSSLGTQTYICNVNHKPSNTKVDKKVEPKSCDKTHTCPPCPAPEYYWGPMVFLFPPKPKDTLMISRTPEVTCVVVDVSDEDPEVKFNWYVDGVEVHNAKTKPREEQYNATYRVVSVLTVLHQDWLNGKEYKCKVSNKDWPAPIEKTISKAKGQPREPQVCTLPPSRDELTKNQVSLWCLVKGFYPSDIAVEWESNGQPENNYKTTPPVLDSDGSFFLYSKLTVDKSRWQQGNVFSCSVMHEALHNHYTQKSLSLSP
heavy 2: QDQLVQSGAEVKKPGASVKVSCKASGFNIKDTYIQWVRQAPGQGLEWMGRIDPLRKQTKYREKFEGRVTITADTSTNTAYMELSSLRSEDTAVYYCVRSGREFDYWGQGTLVTVSSASTKGPSVFPLAPSSKSTSGGTAALGCLVKDYFPEPVTVSWNSGALTSGVHTFPAVLQSSGLYSLSSVVTVPSSSLGTQTYICNVNHKPSNTKVDKKVEPKSCDKTHTCPPCPAPELLGGPSVFLFPPKPKDTLMISRTPEVTCVVVDVSHEEPEVKFNWYVDGVEVHNAKTKPREEQYNSTYRVVSVLTVLHQDWLNGKEYKCKVSNDAWPKPIEETISKAKGQPREPQVYTLPPSRCELTKNQVSLSCAVKGFYPSDIAVEWESNGQPENNYKTTPPVLDSDGSFFLVSKLTVDKSRWQQGNVFSCSVMHEALHNHYTQKSLSLSP
light: DIQMTQSPSSLSASVGDRVTITCRASQDIHKYIAWYQQKPGQAPRLLIQYTSTLQPGVPSRFSGSGSGTDYTFTISSLQPEDIATYYCLQYEQLRTFGGGTKVEIKRTVAAPSVFIFPPSDEQLKSGTASVVCLLNNFYPREAKVQWKVDNALQSGNSQESVTEQDSKDSTYSLSSTLTLSKADYEKHKVYACEVTHQGLSSPVTKSFNRGEC
notes: Heterodimerized anti-epiregulin IgG1 antibody; L328W in both H chains
B2: H240-Kn178/H240-Hl068/L73-k0 (antibody, human IgG1, kappa)
heavy 1: B1 heavy 1 with W327L, K333Y
heavy 2: B1 heavy 2 with W327L
light: B1 light
notes: Heterodimerized anti-epiregulin IgG1 antibody; K334Y in H240-Kn120
B3: H240-Kn173/H240-Hl068/L73-k0 (antibody, human IgG1, kappa)
heavy 1: B1 heavy 1 with W327L, I331Q
heavy 2: B1 heavy 2 with W327L
light: B1 light
notes: Heterodimerized anti-epiregulin IgG1 antibody; I332Q in H240-Kn120
B4: H240-Kn172/H240-Hl177/L73-k0 (antibody, human IgG1, kappa)
heavy 1: B1 heavy 1 with W327L, I331M
heavy 2: B1 heavy 2 with W327L, I331Q
light: B1 light
notes: Heterodimerized anti-epiregulin IgG1 antibody; I332M in H240-Kn120 and I332Q in H240-Hl068
B5: H240-Kn166/H240-Hl170/L73-k0 (antibody, human IgG1, kappa)
heavy 1: B1 heavy 1 with W327A
heavy 2: B1 heavy 2 with W327A
light: B1 light
notes: Heterodimerized anti-epiregulin IgG1 antibody; L328A in both H chains
B6: GpH7-A5/GpH7-B3-03-20W/GpL16-k0 (antibody, human IgG1, kappa)
heavy 1: not shown
heavy 2: not shown
light: DIVMTQSPLSLPVTPGEPASISCQASESLVHSNRNTYLHWYLQKPGQSPQLLIYKVSNRFSGVPDRFSGSGSGTDFTLKISRVEAEDVGVYYCSQNTHVPPTFGQGTKVEIERTVAAPSVFIFPPSDEQLKSGTASVVCLLNNFYPREAKVQWKVDNALQSGNSQESVTEQDSKDSTYSLSSTLTLSKADYEKHKVYACEVTHQGLSSPVTKSFNRGEC
notes: G236W in the GpH7-B3 chain only; also called He Ab G236_20W; GpH7-A5/GpH7-B3 variant G236_20W/GpL16-k0
B7: GpH7-TA6/GpH7-B3/GpL16-k0 (antibody, human IgG1, kappa)
heavy 1: QVQLVQSGAEVKKPGASVTVSCKASGYTFTDYEMHWIRQPPGEGLEWIGAIDPKTGDTAYSESFQDRVTLTADKSTSTAYMELSSLTSEDTAVYYCTRFYSYTYWGQGTLVTVSSASTKGPSVFPLAPSSKSTSGGTAALGCLVKDYFPEPVTVSWNSGALTSGVHTFPAVLQSSGLYSLSSVVTVPSSSLGTQTYICNVNHKPSNTKVDKKVEPKSCDKTHTCPPCPAPELLWGPSVFLFPPKPKDTLMISRTPEVTCVVVDVSHEDPEVKFNWYVDGVEVHNAKTKPREEQYNATYRVVSVLTVLHQDWLNGKEYKCKVSNKALPAPIEKTISKAKGQPREPQVYTLPPSRKELTKNQVSLTCLVKGFYPSDIAVEWESNGQPENNYKTTPPVLDSDGSFFLYSKLTVDKSRWQQGNVFSCSVMHEALHNRYTQKSLSLSP
heavy 2: not shown
light: B6 light
notes: H1 G236W and S298A
B8: GpH7-TA4/GpH7-B3/GpL16-k0 (antibody, human IgG1, kappa)
heavy 1: B7 heavy 1 with L232Y, A296S
heavy 2: not shown
light: B6 light
notes: H1 L234Y and G236W
B9: GpH7-A5/GpH7-B3-15-02A/GpL16-k0 (antibody, human IgG1, kappa)
heavy 1: not shown
heavy 2: not shown
light: B6 light
notes: H2 S298A
B10: GpH7-TA5/GpH7-B3/GpL16-k0 (antibody, human IgG1, kappa)
heavy 1: B7 heavy 1 with L232Y, W234G
heavy 2: not shown
light: B6 light
notes: H1 L234Y and S298A
B11: GpH7-TA3/GpH7-B3-03-20W/GpL16-k0 (antibody, human IgG1, kappa)
heavy 1: B7 heavy 1 with W234G
heavy 2: not shown
light: B6 light
notes: H1 S298A; H2 G236W
B12: GpH7-TA2/GpH7-B3-01-15Y/GpL16-k0 (antibody, human IgG1, kappa)
heavy 1: B7 heavy 1 with A296S
heavy 2: not shown
light: B6 light
notes: H1 G236W; H2 L234Y
B13: GpH7-A5/GpH7-B3-01-15Y/GpL16-k0 (antibody, human IgG1, kappa)
heavy 1: not shown
heavy 2: not shown
light: B6 light
notes: L234Y in the GpH7-B3 chain only; also called He Ab L234_15Y; GpH7-A5/GpH7-B3 variant L234_15Y/GpL16-k0
B14: GpH7-TA1/GpH7-B3-15-02A/GpL16-k0 (antibody, human IgG1, kappa)
heavy 1: B7 heavy 1 with L232Y, W234G, A296S
heavy 2: not shown
light: B6 light
notes: H1 L234Y; H2 S298A

Legend:
FcgRIIIaV = molecular target: T1, FcgRIIIaV (human, UniProt P08637 17-208); assay: SPR (Biacore); KD of H240-Kn120/H240-Hl068/L73-k0 divided by KD of the sample
T1 construct: extracellular domain; Allotype V158; also called FcγRIIIa V; not shown: His tag attached to the C terminus
Procedure: (§1) Analysis of interaction between objective antibody and the FcγR was carried out using Biacore T100 (GE Healthcare), Biacore T200, Biacore A100, and Biacore 4000. HBS-EP+ (GE Healthcare) was used as the running buffer, and the measurement temperature was set to 25° C. Chips produced by immobilizing the antigen peptide by the amine coupling method to a Series S sensor Chip CM5 (GE Healthcare), chips produced by allowing preliminarily biotinylated antigen peptides to interact with and immobilize onto a Series S Sensor Chip SA (certified) (GE Healthcare), chips produced by immobilizing Protein L (ACTIGEN, BioVision) to Series S Sencor Chip CM5 (GE Healthcare), or chips produced by immobilizing Protein A/G (Thermo Scientific) to Series S Sencor Chip CM5 (GE Healthcare) were used. Antibodies of interest were captured onto these chips, and allowed to interact to each FcγR diluted with running buffer. To regenerate and repeatedly use the chip, the antibodies captured onto the chip were washed off by reacting 10 mM glycine-HCl, pH 1.5.

FcgRIIb = molecular target: T2, FcgRIIb (human, UniProt P31994 43-217); assay: as above
T2 construct: extracellular domain; also called FcγRIIb; CD32B; not shown: His tag attached to the C terminus
T2 sequence (looked up): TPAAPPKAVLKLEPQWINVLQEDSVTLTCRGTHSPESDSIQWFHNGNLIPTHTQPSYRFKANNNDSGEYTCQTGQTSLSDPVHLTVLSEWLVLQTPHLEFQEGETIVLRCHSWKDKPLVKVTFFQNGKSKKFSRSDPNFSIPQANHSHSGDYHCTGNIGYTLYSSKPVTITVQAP
Procedure: as §1

FcgRIIaR = molecular target: T3, FcgRIIaR (human, UniProt P12318 34-217); assay: as above
T3 construct: extracellular domain; Allotype R131; also called FcγRIIa R; FcgRIIa type R; not shown: His tag attached to the C terminus
T3 sequence (looked up): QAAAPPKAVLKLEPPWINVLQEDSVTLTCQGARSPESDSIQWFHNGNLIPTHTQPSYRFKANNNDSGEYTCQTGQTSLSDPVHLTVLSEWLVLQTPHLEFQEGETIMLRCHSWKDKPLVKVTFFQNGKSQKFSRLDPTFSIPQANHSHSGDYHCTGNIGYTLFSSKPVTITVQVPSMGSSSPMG
Procedure: as §1

FcgRIa = molecular target: T4, FcgRIa (human, UniProt P12314 16-292); assay: as above
T4 construct: extracellular domain; Soluble extracellular domain expressed in FreeStyle293 cells; also called FcγRIa; FcγRI; not shown: His tag attached to the C terminus
Procedure: as §1

FcgRIIaH = molecular target: T5, FcgRIIaH (human, UniProt P12318 34-217); assay: as above
T5 construct: extracellular domain; Allotype H131; also called FcγRIIa H; FcgRIIa type H; not shown: His tag attached to the C terminus
T5 sequence (looked up): T3 sequence (looked up) with R134H
Procedure: as §1

FcgRIIIaF = molecular target: T6, FcgRIIIaF (human, UniProt P08637 17-208); assay: as above
T6 construct: extracellular domain; Allotype F158; also called FcγRIIIa F; not shown: His tag attached to the C terminus
Procedure: as §1

[1] = molecular target: T7, FcγRIIIa extracellular domain with C-terminal His tag (human, UniProt P08637 17-208); assay: SPR (Biacore), one H chain altered; HeCon Ab GpH7-A5/GpH7-B3/GpL16-k0 = 100
[2] = molecular target: T7, FcγRIIIa extracellular domain with …; assay: SPR (Biacore), relative binding activity; GpH7-A5/GpH7-B3/GpL16-k0 = 100

T6 sequence (P08637 17-208): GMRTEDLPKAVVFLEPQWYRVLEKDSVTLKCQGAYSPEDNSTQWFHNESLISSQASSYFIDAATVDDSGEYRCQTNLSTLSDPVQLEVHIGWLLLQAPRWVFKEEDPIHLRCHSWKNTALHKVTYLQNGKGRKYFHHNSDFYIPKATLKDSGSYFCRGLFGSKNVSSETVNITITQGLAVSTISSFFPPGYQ
T7 sequence (P08637 17-208): as above
T1 sequence (P08637 17-208 F176V limits assumed): as the sequence (P08637 17-208) above, with F160V counted along it
T4 sequence (P12314 16-292): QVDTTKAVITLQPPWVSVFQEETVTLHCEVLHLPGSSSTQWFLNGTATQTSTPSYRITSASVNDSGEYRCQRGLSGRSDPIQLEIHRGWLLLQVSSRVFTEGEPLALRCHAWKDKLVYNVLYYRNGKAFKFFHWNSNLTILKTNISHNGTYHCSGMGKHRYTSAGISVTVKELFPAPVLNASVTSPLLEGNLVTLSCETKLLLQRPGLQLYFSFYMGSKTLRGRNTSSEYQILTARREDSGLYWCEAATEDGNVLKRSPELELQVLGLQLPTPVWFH

Binder	relative KD (FcgRIIIaV)	relative KD (FcgRIIb)	relative KD (FcgRIIaR)	relative KD (FcgRIa)	relative KD (FcgRIIaH)	relative KD (FcgRIIIaF)	He/Con_3a [1] [%]	FcγRIIIa BINDING ACTIVITY [2] [%]
B1	0	1.4	1.8	0.5	0.3	0.1	–	–
B2	1.9	1.4	0.8	0.7	0.6	1.6	–	–
B3	0.9	0.5	0.5	1.3	0.7	1.2	–	–
B4	1.6	0.9	0.7	0.6	0.7	1.1	–	–
B5	0.4	0.8	0.6	2.4	1.9	0.5	–	–
B6	–	–	–	–	–	–	135	140
B7	–	–	–	–	–	–	–	228
B8	–	–	–	–	–	–	–	168
B9	–	–	–	–	–	–	–	163
B10	–	–	–	–	–	–	–	208
B11	–	–	–	–	–	–	–	70
B12	–	–	–	–	–	–	–	130
B13	–	–	–	–	–	–	130	131
B14	–	–	–	–	–	–	–	142
